Molecular target: T1, full-length Human recombinant CHERP with an N-terminal HIS (human, UniProt Q8IWX8 1-916)
T1 sequence: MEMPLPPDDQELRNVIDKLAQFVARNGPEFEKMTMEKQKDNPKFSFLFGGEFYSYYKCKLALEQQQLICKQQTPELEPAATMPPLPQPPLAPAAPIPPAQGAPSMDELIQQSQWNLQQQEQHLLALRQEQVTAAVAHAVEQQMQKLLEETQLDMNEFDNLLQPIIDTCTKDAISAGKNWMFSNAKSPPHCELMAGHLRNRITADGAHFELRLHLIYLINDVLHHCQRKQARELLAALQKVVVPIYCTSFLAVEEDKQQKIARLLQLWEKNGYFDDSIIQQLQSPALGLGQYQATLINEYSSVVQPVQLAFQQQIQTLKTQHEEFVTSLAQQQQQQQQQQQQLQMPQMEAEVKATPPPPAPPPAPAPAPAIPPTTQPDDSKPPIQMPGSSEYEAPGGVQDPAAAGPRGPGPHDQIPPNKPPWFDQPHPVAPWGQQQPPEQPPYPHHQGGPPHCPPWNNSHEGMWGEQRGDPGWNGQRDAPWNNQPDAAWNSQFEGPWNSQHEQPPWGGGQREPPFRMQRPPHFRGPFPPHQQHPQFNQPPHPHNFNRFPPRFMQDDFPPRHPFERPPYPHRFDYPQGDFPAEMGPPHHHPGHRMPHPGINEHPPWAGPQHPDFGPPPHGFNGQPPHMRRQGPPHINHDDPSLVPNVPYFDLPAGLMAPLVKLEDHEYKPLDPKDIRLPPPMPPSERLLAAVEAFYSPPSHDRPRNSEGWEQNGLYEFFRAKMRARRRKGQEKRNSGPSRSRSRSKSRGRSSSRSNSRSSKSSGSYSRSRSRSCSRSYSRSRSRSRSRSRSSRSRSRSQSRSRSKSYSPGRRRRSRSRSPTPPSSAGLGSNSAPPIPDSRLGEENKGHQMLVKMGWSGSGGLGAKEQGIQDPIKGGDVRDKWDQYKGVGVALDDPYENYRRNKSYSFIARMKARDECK
Assay: pull-down

binding result: binds
B1: Full-length Human RBM17 recombinant protein with an N-terminal GST tag (natural protein)
chain: MSLYDDLGVETSDSKTEGWSKNFKLLQSQLQVKKAALTQAKSQRTKQSTVLAPVIDLKRGGSSDDRQIVDTPPHVAAGLKDPVPSGFSAGEVLIPLADEYDPMFPNDYEKVVKRQREERQRQRELERQKEIEEREKRRKDRHEASGFARRPDPDSDEDEDYERERRKRSMGGAAIAPPTSLVEKDKELPRDFPYEEDSRPRSQSSKAAIPPPVYEEQDRPRSPTGPSNSFLANMGGTVAHKIMQKYGFREGQGLGKHEQGLSTALSVEKTSKRGGKIIVGDATEKDASKKSDSNPLTEILKCPTKVVLLRNMVGAGEVDEDLEVETKEECEKYGKVGKCVIFEIPGAPDDEAVRIFLEFERVESAIKAVVDLNGRYFGGRVVKACFYNLDKFRVLDLAEQV
